Assay results taken from PMC6328254, “Sequential Regulation of Maternal mRNAs through a Conserved cis-Acting Element in Their 3′ UTRs”.

T1: Pumilio RNA-binding domain (UniProt P25822 1091-1426)
T1 sequence: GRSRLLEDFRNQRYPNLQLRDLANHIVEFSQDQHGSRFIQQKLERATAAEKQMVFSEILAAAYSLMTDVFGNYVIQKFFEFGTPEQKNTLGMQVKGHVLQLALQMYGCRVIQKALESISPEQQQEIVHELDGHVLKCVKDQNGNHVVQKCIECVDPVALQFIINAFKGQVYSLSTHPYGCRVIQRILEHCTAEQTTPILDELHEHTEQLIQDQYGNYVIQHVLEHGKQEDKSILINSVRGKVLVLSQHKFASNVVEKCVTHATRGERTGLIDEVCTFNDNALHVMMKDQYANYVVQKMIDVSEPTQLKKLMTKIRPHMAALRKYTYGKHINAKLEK


Assays:
Bruno = Bruno (UniProt O02374 1-604); assay: EMSA; 50 mM Tris pH 7.5, 150 mM NaCl, 2 mM DTT, 0.1 mg/ul BSA (so in the source), 0.001% Igepal CA-630, dIdC and yeast tRNA; 20 min at RT; 6% native PAGE at 4 C; conditions: protein: recombinant; tags: His (pETM-82; purified on His GraviTrap); label: 5'-32P
Bruno, sequence (O02374 entry or part of it): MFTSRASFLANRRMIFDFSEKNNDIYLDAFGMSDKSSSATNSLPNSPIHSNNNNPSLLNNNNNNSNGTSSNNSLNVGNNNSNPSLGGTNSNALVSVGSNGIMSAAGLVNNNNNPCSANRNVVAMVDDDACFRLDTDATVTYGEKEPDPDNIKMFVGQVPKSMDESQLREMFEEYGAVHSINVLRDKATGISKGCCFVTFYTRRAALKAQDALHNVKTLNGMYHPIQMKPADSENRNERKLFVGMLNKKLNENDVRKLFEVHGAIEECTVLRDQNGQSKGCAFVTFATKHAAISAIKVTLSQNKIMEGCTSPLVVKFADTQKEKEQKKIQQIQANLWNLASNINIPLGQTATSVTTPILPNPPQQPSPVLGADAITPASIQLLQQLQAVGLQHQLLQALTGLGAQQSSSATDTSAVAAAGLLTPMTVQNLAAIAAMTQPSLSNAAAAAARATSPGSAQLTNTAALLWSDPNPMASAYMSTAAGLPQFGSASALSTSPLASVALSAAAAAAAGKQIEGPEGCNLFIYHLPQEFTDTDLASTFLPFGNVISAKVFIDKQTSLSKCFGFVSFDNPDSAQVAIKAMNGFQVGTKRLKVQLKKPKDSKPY

[1] = molecular target: T1, Pumilio RNA-binding domain; assay: as above; conditions: protein: recombinant; tags: HaloTag (pFN18K) removed by AcTEV cleavage; label: 5'-32P

Binder | binding result (Bruno) | binding result [1]
CUUGAAUGUAUGUUAAUUGUAUGUAUUGAU (ssRNA) [osk 3'UTR BRE] | binds | –
UUUGUAAAUU (ssRNA) [pgc 3'UTR PRE/BRE] | binds | binds
UUUCUCAAUU (ssRNA) [pgc 3'UTR PRE mutant UCUC] | no binding | no binding
UUUUUUAAUU (ssRNA) [pgc 3'UTR PRE mutant UUUU] | no binding | no binding
UAGACUAUUUGUAAUUUAUAUC (ssRNA) [CycB 3'UTR NRE] | – | binds
